Results reported in patent publication EP4660201A1 (dated 2025).
Numbering of substitutions follows the chain as printed. Each block holds one binder with its values, some of them ahead of it.

Experiments:
[1] = target: T1, KRAS G12V 7-16, P8L peptide on HLA-A*11:01 (human); assay: cytokine release
T1 peptide: VVVGAVGLGK

[2] = target: T2, KRAS G12V 7-16, P2I peptide on HLA-A*11:01 (human); assay: cytokine release
T2 peptide: VIVGAVGVGK

[3] = target: T3, KRAS G12V 7-16, P3M peptide on HLA-A*11:01 (human); assay: cytokine release
T3 peptide: VVMGAVGVGK

[4] = target: T4, KRAS G12V 7-16, P3I peptide on HLA-A*11:01 (human); assay: cytokine release
T4 peptide: VVIGAVGVGK

[5] = target: T5, KRAS G12V 7-16, P5S peptide on HLA-A*11:01 (human); assay: cytokine release
T5 peptide: VVVGSVGVGK

[6] = target: T6, KRAS G12V 7-16, P9Q peptide on HLA-A*11:01 (human); assay: cytokine release
T6 peptide: VVVGAVGVQK

[7] = target: T7, KRAS G12V 7-16, P9D peptide on HLA-A*11:01 (human); assay: cytokine release
T7 peptide: VVVGAVGVDK

[8] = target: T8, KRAS G12V 7-16, P9N peptide on HLA-A*11:01 (human); assay: cytokine release
T8 peptide: VVVGAVGVNK

[9] = target: T9, KRAS G12V 7-16, P8G peptide on HLA-A*11:01 (human); assay: cytokine release
T9 peptide: VVVGAVGGGK

[10] = target: T10, KRAS G12V 7-16, P5P peptide on HLA-A*11:01 (human); assay: cytokine release
T10 peptide: VVVGPVGVGK

[11] = target: T11, KRAS G12V 7-16, P3C peptide on HLA-A*11:01 (human); assay: cytokine release
T11 peptide: VVCGAVGVGK

[12] = target: T12, KRAS G12V 7-16, P6I peptide on HLA-A*11:01 (human); assay: cytokine release
T12 peptide: VVVGAIGVGK

[13] = target: T13, KRAS G12V 7-16, P5T peptide on HLA-A*11:01 (human); assay: cytokine release
T13 peptide: VVVGTVGVGK

[14] = target: T14, KRAS G12V 7-16, P9S peptide on HLA-A*11:01 (human); assay: cytokine release
T14 peptide: VVVGAVGVSK

[15] = target: T15, KRAS G12V 7-16, P3S peptide on HLA-A*11:01 (human); assay: cytokine release
T15 peptide: VVSGAVGVGK

[16] = target: T16, KRAS G12V 7-16, P8F peptide on HLA-A*11:01 (human); assay: cytokine release
T16 peptide: VVVGAVGFGK

[17] = target: T17, KRAS G12V 7-16, P8I peptide on HLA-A*11:01 (human); assay: cytokine release
T17 peptide: VVVGAVGIGK

[18] = target: T18, KRAS G12V 7-16, P3A peptide on HLA-A*11:01 (human); assay: cytokine release
T18 peptide: VVAGAVGVGK

[19] = target: T19, KRAS G12V 7-16, P3Q peptide on HLA-A*11:01 (human); assay: cytokine release
T19 peptide: VVQGAVGVGK

[20] = target: T20, KRAS G12V 7-16, P5V peptide on HLA-A*11:01 (human); assay: cytokine release
T20 peptide: VVVGVVGVGK

[21] = target: T21, KRAS G12V 7-16, P3E peptide on HLA-A*11:01 (human); assay: cytokine release
T21 peptide: VVEGAVGVGK

[22] = target: T22, KRAS G12V 7-16, P3G peptide on HLA-A*11:01 (human); assay: cytokine release
T22 peptide: VVGGAVGVGK

[23] = target: T23, KRAS G12V 7-16, P1A peptide on HLA-A*11:01 (human); assay: cytokine release
T23 peptide: AVVGAVGVGK

[24] = target: T24, KRAS G12V 7-16, P5C peptide on HLA-A*11:01 (human); assay: cytokine release
T24 peptide: VVVGCVGVGK

[25] = target: T25, KRAS G12V 7-16, P9A peptide on HLA-A*11:01 (human); assay: cytokine release
T25 peptide: VVVGAVGVAK

[26] = target: T26, KRAS G12V 7-16, P8C peptide on HLA-A*11:01 (human); assay: cytokine release
T26 peptide: VVVGAVGCGK

[27] = target: T27, KRAS G12V 7-16, P8T peptide on HLA-A*11:01 (human); assay: cytokine release
T27 peptide: VVVGAVGTGK

[28] = target: T28, KRAS G12V 7-16, P7A peptide on HLA-A*11:01 (human); assay: cytokine release
T28 peptide: VVVGAVAVGK

[29] = target: T29, KRAS G12V 7-16, P7Q peptide on HLA-A*11:01 (human); assay: cytokine release
T29 peptide: VVVGAVQVGK

[30] = target: T30, KRAS G12V 7-16, P1T peptide on HLA-A*11:01 (human); assay: cytokine release
T30 peptide: TVVGAVGVGK

[31] = target: T31, KRAS G12V 7-16, P6L peptide on HLA-A*11:01 (human); assay: cytokine release
T31 peptide: VVVGALGVGK

[32] = target: T32, KRAS G12V peptide on HLA-A*11:01 (human); assay: NFAT-GFP reporter in Jurkat (endogenous TCR knocked out); T2 cells loaded with 1e-5 to 1e-9 M target antigen peptide; full-length, on cells
T32 peptide: VVVGAVGVGK

[33] = target: T32, KRAS G12V peptide on HLA-A*11:01; assay: IFN-gamma ELISA; TCR-T cells with T2KO-A1101 cells loaded with 1e-5 to 1e-11 M peptide, E:T 1:1, 20 h; Figure 6C; full-length, on cells
[34] = target: T32, KRAS G12V peptide on HLA-A*11:01; assay: luciferase killing assay; TCR-T cells with T2KO-A1101 cells loaded with 1e-5 to 1e-11 M peptide, E:T 9:1, 20 h; Figure 5C; full-length, on cells
[35] = target: KRAS G12V 7-16 epitope peptide … presented by HLA-A*11:01 (human); assay: cell-based or functional assay
[36] = target: T33, KRAS G12D peptide on HLA-A*11:01 (human); assay: IFN-gamma ELISA; TCR-T cells with T2KO-A1101 cells loaded with 1e-5 to 1e-11 M peptide, E:T 1:1, 20 h; Figure 6D; full-length, on cells
T33 peptide: VVVGADGVGK

[37] = target: T33, KRAS G12D peptide on HLA-A*11:01; assay: NFAT-GFP reporter in Jurkat (endogenous TCR knocked out); T2 cells loaded with 1e-5 to 1e-9 M target antigen peptide; full-length, on cells
[38] = target: KRAS G12D 7-16 epitope peptide … presented by HLA-A*11:01 (human); assay: cell-based or functional assay

binding result [1]: recognises | binding result [2]: recognises | binding result [3]: recognises | binding result [4]: recognises | binding result [5]: recognises | binding result [6]: recognises | binding result [7]: recognises | binding result [8]: recognises | binding result [9]: recognises | binding result [10]: recognises | binding result [11]: recognises | binding result [12]: recognises | binding result [13]: recognises | binding result [14]: recognises | binding result [15]: recognises | binding result [16]: recognises | binding result [17]: recognises | binding result [18]: recognises | binding result [19]: recognises | binding result [20]: recognises | binding result [21]: recognises | binding result [22]: recognises | binding result [23]: recognises | binding result [24]: recognises | binding result [25]: recognises
B1: KVA11-N02 (TCR, V domains shown)
Valpha: AQSVAQPEDQVNVAEGNPLTVKCTYSVSGNPYLFWYVQYPNRGLQFLLKYITGDNLVKGSYGFEAEFNKSQTSFHLKKPSALVSDSALYFCAVRDIEGAGNNRKLIWGLGTSLAVNP
Vbeta: DAGVIQSPRHEVTEMGQEVTLRCKPISGHNSLFWYRQTMMRGLELLIYFNNNVPIDDSGMPEDRFSAKMPNASFSTLKIQPSEPRDSAVYFCASSEGFYTEAFFGQGTRLTVV

binding result [2]: recognises | binding result [4]: recognises | binding result [26]: recognises | binding result [27]: recognises | binding result [5]: recognises | binding result [28]: recognises | binding result [29]: recognises | binding result [12]: recognises | binding result [17]: recognises | binding result [18]: recognises | binding result [30]: recognises | binding result [22]: recognises | binding result [24]: recognises | binding result [31]: recognises | EC50 of peptide [32]: 28.9 nM | EC50 of peptide [33]: 22 nM | EC50 of IFN-γ secretion with peptide-loaded T2KO-A1101 cells (ELISA, E:T 1:1, 20 hours) [35]: 22 nM | EC50 of NFAT-GFP reporter activation, TCR in Jurkat-NFAT cells with peptide-loaded T2 cells [35]: 28.9 nM
B2: KVA11-N04 (TCR, V domains shown)
Valpha: GESVGLHLPTLGVQEGDNSIINCAYSNSASDYFIWYKQESGKGPQFIIDIRSNMDKRQGQRVTVLLNKTVKHLSLQIAATQPGDSAVYFCAENSDGTSYGKLTFGQGTILTVHP
Vbeta: EAGVAQSPRYKIIEKRQSVAFWCNPISGHATLYWYQQILGQGPKLLIQFQNNGVVDDSQLPKDRFSAERLKGVDSTLKIQPAKLEDSAVYLCASSLVGSPDYEQYFGPGTRLTVT
EC50 of peptide [34]: 0.973 nM | EC50 of killing of peptide-loaded T2KO-A1101 cells (luciferase, E:T 9:1, 20 hours) [35]: 973 pM

EC50 of peptide [36]: 49.6 nM | EC50 of peptide [37]: 76.5 nM | EC50 of IFN-γ secretion with peptide-loaded T2KO-A1101 cells (ELISA, E:T 1:1, 20 hours) [38]: 49.6 nM | EC50 of NFAT-GFP reporter activation, TCR in Jurkat-NFAT cells with peptide-loaded T2 cells [38]: 76.5 nM
B3: KDA11-N01 (TCR, V domains shown)
Valpha: QKEVEQNSGPLSVPEGAIASLNCTYSDRGSQSFFWYRQYSGKSPELIMSIYSNGDKEDGRFTAQLNKASQYVSLLIRDSQPSDSATYLCAVNLGAAGNKLTFGGGTRVLVKP
Vbeta: B2 Vbeta with L96F, V97S, G98D, P100Y, D101N, Y102S, E103P, Q104L, Y105H, P108N
